Test results taken from patent publication US9221871 (NEW YORK UNIVERSITY, dated 2015).

Target: T1, His-tagged human Bcl-xL (human, UniProt Q07817 1-212)
T1 construct: Bought protein; also called Hiss-tagged human Bcl-xL; not shown: His tag
Assay: fluorescence polarization competition against fl-Bak, Kd by regression analysis
Method: The anisotropy experiments were performed with a DTX 880 Multimode Detector (Beckman) at 4° C., with excitation and emission wavelengths of 485 and 525 nm, respectively.

T1 sequence (Q07817 1-212): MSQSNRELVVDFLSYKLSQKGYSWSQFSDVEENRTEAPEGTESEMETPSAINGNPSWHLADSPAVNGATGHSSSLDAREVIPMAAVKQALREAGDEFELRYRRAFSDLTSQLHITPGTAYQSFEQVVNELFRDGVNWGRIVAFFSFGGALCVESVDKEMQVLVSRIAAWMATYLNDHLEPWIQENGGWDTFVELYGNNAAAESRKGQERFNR

Kd: 325 nM
B1: artificial Bak BH3 α-helix 10a (hydrogen bond surrogate, HBS) (peptide)
chain: QVGRQLAIIGDDINR
modifications: not fully specified; N-terminal Gly-72 replaced by a 4-pentenoic acid residue (alkene-bearing glycine mimic); Gly-75 is N-allyl-glycine; the two olefins are joined by ring-closing metathesis (carbon-carbon hydrogen bond surrogate, mixture of cis and trans alkene isomers); C-terminal amide
